B1: RVRa: Rev-Erb α (NR1D1), cDNA driver (protein, UniProt P20393 1-614, looked up)
Nuclear receptor subfamily 1 …: MTTLDSNNNTGGVITYIGSSGSSPSRTSPESLYSDNSNGSFQSLTQGCPTYFPPSPTGSLTQDPARSFGSIPPSLSDDGSPSSSSSSSSSSSSFYNGSPPGSLQVAMEDSSRVSPSKSTSNITKLNGMVLLCKVCGDVASGFHYGVHACEGCKGFFRRSIQQNIQYKRCLKNENCSIVRINRNRCQQCRFKKCLSVGMSRDAVRFGRIPKREKQRMLAEMQSAMNLANNQLSSQCPLETSPTQHPTPGPMGPSPPPAPVPSPLVGFSQFPQQLTPPRSPSPEPTVEDVISQVARAHREIFTYAHDKLGSSPGNFNANHASGSPPATTPHRWENQGCPPAPNDNNTLAAQRHNEALNGLRQAPSSYPPTWPPGPAHHSCHQSNSNGHRLCPTHVYAAPEGKAPANSPRQGNSKNVLLACPMNMYPHGRSGRTVQEIWEDFSMSFTPAVREVVEFAKHIPGFRDLSQHDQVTLLKAGTFEVLMVRFASLFNVKDQTVMFLSRTTYSLQELGAMGMGDLLSAMFDFSEKLNSLALTEEELGLFTAVVLVSADRSGMENSASVEQLQETLLRALRALVLKNRPLETSRFTKLLLKLPDLRTLNNMHSEKLLSFRVDAQ
B2: RVRb: Rev-Erb β (NR1D2, alternative name RVR), cDNA driver (protein, UniProt Q14995 1-579, looked up)
Nuclear receptor subfamily 1 …: MEVNAGGVIAYISSSSSASSPASCHSEGSENSFQSSSSSVPSSPNSSNSDTNGNPKNGDLANIEGILKNDRIDCSMKTSKSSAPGMTKSHSGVTKFSGMVLLCKVCGDVASGFHYGVHACEGCKGFFRRSIQQNIQYKKCLKNENCSIMRMNRNRCQQCRFKKCLSVGMSRDAVRFGRIPKREKQRMLIEMQSAMKTMMNSQFSGHLQNDTLVEHHEQTALPAQEQLRPKPQLEQENIKSSSPPSSDFAKEEVIGMVTRAHKDTFMYNQEQQENSAESMQPQRGERIPKNMEQYNLNHDHCGNGLSSHFPCSESQQHLNGQFKGRNIMHYPNGHAICIANGHCMNFSNAYTQRVCDRVPIDGFSQNENKNSYLCNTGGRMHLVCPMSKSPYVDPHKSGHEIWEEFSMSFTPAVKEVVEFAKRIPGFRDLSQHDQVNLLKAGTFEVLMVRFASLFDAKERTVTFLSGKKYSVDDLHSMGAGDLLNSMFEFSEKLNALQLSDEEMSLFTAVVLVSADRSGIENVNSVEALQETLIRALRTLIMKNHPNEASIFTKLLLKLPDLRSLNNMHSEELLAFKVHP
B3: RORa: RAR-related Orphan Receptor α (NR1F1), cDNA driver (protein, UniProt P35398 1-523, looked up)
Nuclear receptor ROR-alpha: MESAPAAPDPAASEPGSSGADAAAGSRETPLNQESARKSEPPAPVRRQSYSSTSRGISVTKKTHTSQIEIIPCKICGDKSSGIHYGVITCEGCKGFFRRSQQSNATYSCPRQKNCLIDRTSRNRCQHCRLQKCLAVGMSRDAVKFGRMSKKQRDSLYAEVQKHRMQQQQRDHQQQPGEAEPLTPTYNISANGLTELHDDLSNYIDGHTPEGSKADSAVSSFYLDIQPSPDQSGLDINGIKPEPICDYTPASGFFPYCSFTNGETSPTVSMAELEHLAQNISKSHLETCQYLREELQQITWQTFLQEEIENYQNKQREVMWQLCAIKITEAIQYVVEFAKRIDGFMELCQNDQIVLLKAGSLEVVFIRMCRAFDSQNNTVYFDGKYASPDVFKSLGCEDFISFVFEFGKSLCSMHLTEDEIALFSAFVLMSADRSWLQEKVKIEKLQQKIQLALQHVLQKNHREDGILTKLICKVSTLRALCGRHTEKLMAFKAIYPDIVRLHFPPLYKELFTSEFEPAMQIDG
B4: RORg: RAR-related Orphan Receptor γ (NR1F3), cDNA driver (protein, UniProt P51449 1-518, looked up)
Nuclear receptor ROR-gamma: MDRAPQRQHRASRELLAAKKTHTSQIEVIPCKICGDKSSGIHYGVITCEGCKGFFRRSQRCNAAYSCTRQQNCPIDRTSRNRCQHCRLQKCLALGMSRDAVKFGRMSKKQRDSLHAEVQKQLQQRQQQQQEPVVKTPPAGAQGADTLTYTLGLPDGQLPLGSSPDLPEASACPPGLLKASGSGPSYSNNLAKAGLNGASCHLEYSPERGKAEGRESFYSTGSQLTPDRCGLRFEEHRHPGLGELGQGPDSYGSPSFRSTPEAPYASLTEIEHLVQSVCKSYRETCQLRLEDLLRQRSNIFSREEVTGYQRKSMWEMWERCAHHLTEAIQYVVEFAKRLSGFMELCQNDQIVLLKAGAMEVVLVRMCRAYNADNRTVFFEGKYGGMELFRALGCSELISSIFDFSHSLSALHFSEDEIALYTALVLINAHRPGLQEKRKVEQLQYNLELAFHHHLCKTHRQSILAKLPPKGKLRSLCSQHVERLQIFQHLHPIVVQAAFPPLYKELFSTETESPVGLSK

How the values were obtained:
hPOMC promoter = test: NHR-promoter luciferase screen, hPOMC promoter; assay type: cell-based, human; settings: for Luc. act., normalized to lacZ / Normalized Luc. act., normalized to control: hPOMC promoter, HR/ligand component; for hPOMC promoter reporter activity: transcription factor +/- ligand, control = 1.00
Experimental: (§1) The use, feasibility, and reproducibility of the functional NHR-promoter screen in a 48-well format have been tested validated. Briefly, there were co-expressed 50 ng of each NHR/NHR homodimer or NHR/RXR heterodimer with 100 ng promoter/luciferase construct and 50 ng of LacZ (as a control for transfection efficiency) in CV-1 cells using Fugene HD (Roche) as a transfection reagent (alternatively or additionally, a CMV-YFP construct can be used as a transfection control). Each of the nuclear hormone receptors that were used in these experiments was cloned into a pcDNA3.1 vector and comprised a C-terminally linked V5H6 tag. Twenty-four hours after transfection, appropriate ligands were added, where applicable, (see Table 5 for various ligands and concentrations and after 48 hrs, samples were assayed for luciferase and LacZ activity. To measure for luciferase activity 15 ul of sample was added to 30 ul of luciferase buffer (20 mM tricine, 1.07 mM MgCarbonate, 2.67 mM MgSulfate, 0.1 mM Naz-EDTA, 5 mM DTT, 5 mM ATP, 0.15 mg/ml CoA, 0.5 mM Luciferin), mixed briefly, and run in a Perkin Elmer Victor 5 luminometer. Thus, the functional NHR-promoter screen was used to observe the transcriptional activity of 29 promoters from various physiological pathways including inflammation, lipid and sugar metabolism, cholesterol transport, xenobiotic metabolism, and circadian rhythm.
(§2) The promoters that facilitate transcription of the indicated gene products that were tested using the protocols described herein are listed in the first row of the table. The nuclear hormone receptors and, where applicable, ligands that were assayed for their transcriptional effects on the promoters are listed in the first column of the table. The data represent the luciferase activity of each sample normalized to both the lacZ activity of that sample and to a control, e.g., no NHR or ligand, as customary in the art. As described previously, these normalizations allow the transcriptional activity of each reporter cell to be compared to other samples.
(§3) Tables 7-40 show the transcriptional effects of the hormone receptors, and, where applicable, ligands (orphan receptors are screened without ligand), on each individual promoter. […] The control data of each table are shown in their last rows.

mNPY promoter = test: NHR-promoter luciferase screen, mNPY promoter; assay type: cell-based, mouse; settings: for Results of assays of transcription factor (+/- ligand) with mNPY: Table 6d, luciferase activity relative to control (control = 1.00); for Luc. act., normalized to lacZ / Normalized Luc. act., normalized to control: mNPY promoter, HR component with or without ligand; for Normalized Luc. act., normalized to control: relative to control
Experimental: as §1, §2, §3

hMDR1 promoter = test: NHR-promoter luciferase screen, hMDR1 promoter; assay type: cell-based, human; settings: for Luc. act., normalized to lacZ / Normalized Luc. act., normalized to control: MDR1 promoter, HR/ligand component; for hMDR1 promoter reporter activity: transcription factor +/- ligand, control = 1.00
Experimental: as §1, §2, §3

hCYP3A4 promoter = test: NHR-promoter luciferase screen, hCYP3A4 promoter; assay type: cell-based, human; settings: for Luc. act., normalized to lacZ / Normalized Luc. act., normalized to control: CYP3A4 promoter, HR/ligand component; for hCYP3A4 promoter reporter activity: transcription factor +/- ligand, control = 1.00
Experimental: (§4) Briefly, there were co-expressed 50 ng of each NHR/NHR homodimer or NHR/RXR heterodimer with 100 ng promoter/luciferase construct and 50 ng of LacZ (as a control for transfection efficiency) in CV-1 cells using Fugene HD (Roche) as a transfection reagent (alternatively or additionally, a CMV-YFP construct can be used as a transfection control). Each of the nuclear hormone receptors that were used in these experiments was cloned into a pcDNA3.1 vector and comprised a C-terminally linked V5H6 tag.
as §2, §3

RevErba promoter = test: NHR-promoter luciferase screen, RevErba (RVRa) promoter; assay type: cell-based; parameters: key to mRevErba promoter reporter activity / Normalized Luc. act., normalized to control: luciferase activity normalized to lacZ and to control (no NHR/ligand); settings: for Luc. act., normalized to lacZ / Normalized Luc. act., normalized to control / negative reciprocal of normalized Luc. act. (fold repression; Table 33) / normalized Luc. act. on a logarithmic scale (column without head, Table 33): RVRa promoter; for Luc. act., normalized to lacZ / Normalized Luc. act., normalized to control: HR component without or with ligand; for negative reciprocal of normalized Luc. act. (fold repression; Table 33): given only where activity is below control; for normalized Luc. act. on a logarithmic scale (column without head, Table 33): log10 of activity normalized to control; for mRevErba promoter reporter activity: transcription factor +/- ligand, control = 1.00
Experimental: as §4, §2
The control data of each table are shown in their last rows.

| Molecule | Luc. act., normalized to lacZ (hPOMC promoter) | Normalized Luc. act., normalized to control (hPOMC promoter) | hPOMC promoter reporter activity (hPOMC promoter) | Results of assays of transcription factor (+/- ligand) with mNPY (mNPY promoter) | Luc. act., normalized to lacZ (mNPY promoter) | Normalized Luc. act., normalized to control (mNPY promoter) | Luc. act., normalized to lacZ (hMDR1 promoter) | Normalized Luc. act., normalized to control (hMDR1 promoter) | hMDR1 promoter reporter activity (hMDR1 promoter) | Luc. act., normalized to lacZ (hCYP3A4 promoter) | Normalized Luc. act., normalized to control (hCYP3A4 promoter) | hCYP3A4 promoter reporter activity (hCYP3A4 promoter) | Luc. act., normalized to lacZ (RevErba promoter) | Normalized Luc. act., normalized to control (RevErba promoter) | negative reciprocal of normalized Luc. act. (fold repression; Table 33) (RevErba promoter) | normalized Luc. act. on a logarithmic scale (column without head, Table 33) (RevErba promoter) | mRevErba promoter reporter activity (RevErba promoter) |
| --- | --- | --- | --- | --- | --- | --- | --- | --- | --- | --- | --- | --- | --- | --- | --- | --- | --- |
| B1 | 2.3 | 0.5 | 0.53 | 1.09 | 91.9 | 1.1 | 0.2 | 0.6 | 0.64 | 2.2 | 0.5 | 0.50 | 9.76 | 0.3 | −2.865 | −0.46 | 0.35 |
| B2 | 2.8 | 0.7 | 0.66 | 1.67 | 140.6 | 1.7 | 0.3 | 0.9 | 0.94 | 4.5 | 1.0 | 1.01 | 2.06 | 0.1 | −13.5606 | −1.13 | 0.07 |
| B3 | 1.6 | 0.4 | 0.38 | 0.90 | 75.4 | 0.9 | 0.1 | 0.3 | 0.32 | 1.6 | 0.4 | 0.36 | 86.91 | 3.1 |  | 0.49 | 3.11 |
| B4 | 2.1 | 0.5 | 0.50 | 0.91 | 76.5 | 0.9 | 0.2 | 0.5 | 0.54 | 3.4 | 0.8 | 0.76 | 67.79 | 2.4 |  | 0.38 | 2.42 |

— US20110263454A1, “Methods of Identifying Functional Characteristics of Promoters, Transcription Modifying Proteins and Transcription Modulating Agents” (Salk Institute for Biological Studies, priority 2008, published 2011)
